B1: Invasin IpaA (Shigella flexneri), P18010 (parent)
chain: MHNVNNTQAPTFLYKATSPSSTEYSELKSKISDIHSSQTSLKTPASVSEKENFATSFNQKCLDFLFSSSGKEDVLRSIYSNSMNAYAKSEILEFSNVLYSLVHQNGLNFENEKGLQKIVAQYSELIIKDKLSQDSAFGPWSAKNKKLHQLRQNIEHRLALLAQQHTSGEALSLGQKLLNTEVSSFIKNNILAELKLSNETVSSLKLDDLVDAQAKLAFDSLRNQRKNTIDSKGFGIGKLSRDLNTVAVFPELLRKVLNDILEDIKDSHPIQDGLPTPPEDMPDGGPTPGANEKTSQPVIHYHINNDNRTYDNRVFDNRVYDNSYHENPENDAQSPTSQTNDLLSRNGNSLLNPQRALVQKVTSVLPHSISDTVQTFANNSALEKVFNHTPDNSDGIGSDLLTTSSQERSANNSLSRGHRPLNIQNSSTTPPLHPEGVTSSNDNSSDTTKSSASLSHRVASQINKFNSNTDSKVLQTDFLSRNGDTYLTRETIFEASKKVTNSLSNLISLIGTKSGTQERELQEKSKDITKSTTEHRINNKLKVTDANIRNYVTETNADTIDKNHAIYEKAKEVSSALSKVLSKIDDTSAELLTDDISDLKNNNDITAENNNIYKAAKDVTTSLSKVLKNINKD

Variants of: B1
Conditions: with vinc_human VCL
With V499E;L503Q the “effect of a mutation on the interaction” value was “disrupting interaction”.

Variants of: B1
Conditions: with vinc_human VCL
Remark: another data set of the same source
A495K was tested, and the “effect of a mutation on the interaction” value was “decreasing interaction”.
